# Data as given in patent EP4785961A1 (Fortvita Biologics Inc., dated 2025).
# Columns and labels:
# [1] = molecular target: HER3 expressed on tumor cell lines (NUGC4, HCC1569, NCI-H508, SW620, HCC827 HER3OX) (UniProt P21860 20-1342, limits assumed); test: cell-based or functional assay
# [2] = molecular target: T1, mouse HER3 (Sino Biological, 51003-M08H) (mouse, UniProt Q61526 20-641); test: BLI (Fortebio Octet Red96e), AHC sensors, HER3-MB3 and antigen each at 100 nM
# T1 construct: Bought antigen; also called Mice
# T1 sequence (Q61526 20-641 limits assumed, stated change not applied): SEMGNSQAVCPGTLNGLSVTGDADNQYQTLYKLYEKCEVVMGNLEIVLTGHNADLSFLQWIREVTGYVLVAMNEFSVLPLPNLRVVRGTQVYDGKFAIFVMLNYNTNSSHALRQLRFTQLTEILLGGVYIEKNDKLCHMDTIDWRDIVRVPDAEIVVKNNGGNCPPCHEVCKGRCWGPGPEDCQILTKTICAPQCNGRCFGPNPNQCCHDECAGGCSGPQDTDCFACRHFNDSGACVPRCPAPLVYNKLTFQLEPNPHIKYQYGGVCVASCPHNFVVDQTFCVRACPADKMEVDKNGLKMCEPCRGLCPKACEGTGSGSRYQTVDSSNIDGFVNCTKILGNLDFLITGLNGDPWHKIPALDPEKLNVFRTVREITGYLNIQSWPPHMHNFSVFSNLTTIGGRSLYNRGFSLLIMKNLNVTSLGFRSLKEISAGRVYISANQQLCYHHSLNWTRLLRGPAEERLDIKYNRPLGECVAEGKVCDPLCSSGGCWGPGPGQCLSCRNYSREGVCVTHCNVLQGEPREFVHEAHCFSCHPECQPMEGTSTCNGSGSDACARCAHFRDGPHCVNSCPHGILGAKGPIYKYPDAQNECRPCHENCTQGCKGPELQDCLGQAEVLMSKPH
# [3] = molecular target: T2, monkey HER3 (Sino Biological, 90043-K08H) (cynomolgus monkey, UniProt G7PIG5 20-643); test: as above
# T2 construct: Bought antigen; also called Cynomolgus monkeys
# T2 sequence (G7PIG5 entry or part of it K08H K08H): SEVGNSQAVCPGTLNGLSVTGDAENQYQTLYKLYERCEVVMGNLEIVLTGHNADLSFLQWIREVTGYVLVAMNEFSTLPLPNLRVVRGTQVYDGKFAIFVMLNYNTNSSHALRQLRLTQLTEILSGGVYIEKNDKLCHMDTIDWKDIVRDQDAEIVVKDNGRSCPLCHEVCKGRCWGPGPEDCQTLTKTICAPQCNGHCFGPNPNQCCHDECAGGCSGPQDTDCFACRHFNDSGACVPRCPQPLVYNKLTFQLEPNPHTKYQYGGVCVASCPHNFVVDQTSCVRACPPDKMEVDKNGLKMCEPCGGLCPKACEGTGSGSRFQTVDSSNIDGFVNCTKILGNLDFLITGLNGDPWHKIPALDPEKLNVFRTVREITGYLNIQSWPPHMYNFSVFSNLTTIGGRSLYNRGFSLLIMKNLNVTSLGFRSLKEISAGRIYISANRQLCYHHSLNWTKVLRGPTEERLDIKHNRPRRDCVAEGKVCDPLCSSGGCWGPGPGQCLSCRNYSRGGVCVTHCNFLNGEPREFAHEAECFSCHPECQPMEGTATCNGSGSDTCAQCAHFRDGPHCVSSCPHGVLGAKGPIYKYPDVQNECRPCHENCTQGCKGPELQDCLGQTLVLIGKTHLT
# [4] = molecular target: T3, rat HER3 (Sino Biological, 80111-R08H) (rat, UniProt Q62799 20-641); test: as above
# T3 construct: Bought antigen
# T3 sequence (Q62799 20-641 limits assumed, stated change not applied): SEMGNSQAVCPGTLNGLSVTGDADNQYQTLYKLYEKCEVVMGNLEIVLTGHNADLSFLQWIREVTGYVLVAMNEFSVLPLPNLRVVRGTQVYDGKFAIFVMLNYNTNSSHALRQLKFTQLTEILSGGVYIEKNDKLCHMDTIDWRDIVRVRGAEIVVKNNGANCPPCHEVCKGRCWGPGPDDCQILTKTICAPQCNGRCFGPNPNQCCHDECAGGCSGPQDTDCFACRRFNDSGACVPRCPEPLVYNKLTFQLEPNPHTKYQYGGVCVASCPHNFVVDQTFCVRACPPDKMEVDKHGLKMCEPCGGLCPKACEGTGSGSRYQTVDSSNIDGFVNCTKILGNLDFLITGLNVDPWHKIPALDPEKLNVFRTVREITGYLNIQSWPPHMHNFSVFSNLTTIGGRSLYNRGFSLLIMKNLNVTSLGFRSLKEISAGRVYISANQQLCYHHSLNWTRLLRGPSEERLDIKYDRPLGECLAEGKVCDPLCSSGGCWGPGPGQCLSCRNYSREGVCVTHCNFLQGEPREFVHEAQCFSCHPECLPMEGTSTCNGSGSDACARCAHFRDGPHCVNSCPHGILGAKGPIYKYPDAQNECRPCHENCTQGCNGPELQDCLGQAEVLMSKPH
# [5] = molecular target: T4, human HER3 (Sino Biological, 10201-H08H) (human, UniProt P21860 20-643); test: as above
# T4 construct: Bought antigen; also called ErbB3
binder,measurement,setting,value
"HER3-MB3 (patritumab-MB3) antibody-drug conjugate (antibody, human IgG1, kappa, V domains shown, drug-linker MB3 (payload MB1) conjugated to cysteines after TCEP reduction; conjugated positions not given; drug-linker MB3 (payload MB1) conjugated to cysteines after TCEP reduction; n mainly 8, average DAR 7.56; conjugated positions not given, Antibody-drug conjugate; also called HER3-ADC) VH: QVQLQQWGAGLLKPSETLSLTCAVYGGSFSGYYWSWIRQPPGKGLEWIGEINHSGSTNYNPSLKSRVTISVETSKNQFSLKLSSVTAADTAVYYCARDKWTWYFDLWGRGTLVTVSS VL: not shown","IC50 of in vitro killing, HCC1569 tumor cell line (3D culture, 7 days, Cell-Titer)",[1],0.07 nM
same,"IC50 of in vitro killing, NUGC4 tumor cell line (3D culture, 7 days, Cell-Titer)",[1],0.55 nM
same,Kd,[2],45.8 nM
same,koff,[2],0.00989 s⁻¹
same,kon,[2],216000 M⁻¹ s⁻¹
same,Kd,[3],2.55 nM
same,koff,[3],0.000562 s⁻¹
same,kon,[3],221000 M⁻¹ s⁻¹
same,Kd,[4],38.8 nM
same,koff,[4],0.00615 s⁻¹
same,kon,[4],158000 M⁻¹ s⁻¹
same,Kd,[5],2.42 nM
same,koff,[5],0.000463 s⁻¹
same,kon,[5],191000 M⁻¹ s⁻¹
